Assay results: publication PMC9352680, “A comprehensive thermodynamic model for RNA binding by the Saccharomyces cerevisiae Pumilio protein PUF4”

T1: PUF4 RNA-binding domain (Saccharomyces cerevisiae, UniProt P25339 537-888)
T1 sequence: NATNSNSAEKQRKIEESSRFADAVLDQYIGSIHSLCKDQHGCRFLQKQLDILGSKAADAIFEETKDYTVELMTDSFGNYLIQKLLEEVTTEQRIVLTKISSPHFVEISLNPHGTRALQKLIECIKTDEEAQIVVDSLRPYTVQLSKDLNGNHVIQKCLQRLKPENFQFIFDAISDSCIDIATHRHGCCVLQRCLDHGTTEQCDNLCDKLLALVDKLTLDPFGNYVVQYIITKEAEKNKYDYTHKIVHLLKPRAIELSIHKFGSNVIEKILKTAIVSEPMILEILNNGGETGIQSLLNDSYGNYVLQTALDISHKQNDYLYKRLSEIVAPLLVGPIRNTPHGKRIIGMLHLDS


Biological target: T1, PUF4 RNA-binding domain
Test: Mg; RNA-MaP; 20 mM Na-HEPES pH 7.4, 30 mM KOAc, 0.75 mM MgCl2, 0.1% Tween-20, 5% glycerol, 0.1 mg/mL BSA, 2 mM DTT; 25 C; 0.0125-409.6 nM protein
Settings: tags: N-His6-TEV cleaved; C-SNAP kept, Cy3B-labelled; label: tethered on chip by stalled RNA polymerase

Binder | Kd
Ic_S4_P4E.1_K4.1_C4.1_H4.1_A4.1_[T5A]_[A6C]_F4.1_[T8C]_[A9G]_T4.1 (ssRNA) RNA: UUUGACAACUGAUCGUUCUUUCUUGUAACUCGUUCUUUCUCGAUCAGUUGUCUUU | 577 nM
Ic_S4_P4E.1_K4.1_C4.1_H4.1_A4.1_[T5C]_F4.1_[T8A]_[A9T]_T4.1 (ssRNA) RNA: UUUGACAACUGAUCGUUCUUUCUUGUACAUAUUUCUUUCUCGAUCAGUUGUCUUU | 1.55 nM
Ic_S4_P4E.1_K4.1_C4.1_H4.1_A4.1_[T5A]_[A6C]_[T7G]_F4.1_[A9C]_T4.1 (ssRNA) RNA: UUUGACAACUGAUCGUUCUUUCUUGUAACGUCUUCUUUCUCGAUCAGUUGUCUUU | 919 nM
Ic_S4_P4E.1_K4.1_C4.1_H4.1_A4.1_[T5A]_[A6C]_F4.1_[T8C]_T4.1 (ssRNA) RNA: UUUGACAACUGAUCGUUCUUUCUUGUAACUCAUUCUUUCUCGAUCAGUUGUCUUU | 281 nM
Ic_S4_P4E.1_K4.1_C4.1_H4.1_A4.1_[T5A]_[A6T]_[T7C]_F4.1_[T8G]_[A9G]_T4.1 (ssRNA) RNA: UUUGACAACUGAUCGUUCUUUCUUGUAAUCGGUUCUUUCUCGAUCAGUUGUCUUU | 1920 nM
Ic_S4_P4E.1_K4.1_C4.1_H4.1_A4.1_[T5C]_F4.1_[T8C]_[A9T]_T4.1 (ssRNA) RNA: UUUGACAACUGAUCGUUCUUUCUUGUACAUCUUUCUUUCUCGAUCAGUUGUCUUU | 11.1 nM
Ic_S4_P4E.1_K4.1_C4.1_H4.1_A4.1_[T5A]_[A6T]_[T7G]_F4.1_[T8C]_[A9C]_T4.1 (ssRNA) RNA: UUUGACAACUGAUCGUUCUUUCUUGUAAUGCCUUCUUUCUCGAUCAGUUGUCUUU | 1200 nM
Ic_S4_P4E.1_K4.1_C4.1_H4.1_A4.1_[T5A]_[A6C]_[T7A]_F4.1_[A9C]_T4.1 (ssRNA) RNA: UUUGACAACUGAUCGUUCUUUCUUGUAACAUCUUCUUUCUCGAUCAGUUGUCUUU | 22.5 nM
Ic_S4_P4E.1_K4.1_C4.1_H4.1_A4.1_[T5A]_[A6C]_F4.1_[T8A]_[A9G]_T4.1 (ssRNA) RNA: UUUGACAACUGAUCGUUCUUUCUUGUAACUAGUUCUUUCUCGAUCAGUUGUCUUU | 653 nM
Ic_S4_P4E.1_K4.1_C4.1_H4.1_A4.1_[T5C]_F4.1_[T8A]_[A9G]_T4.1 (ssRNA) RNA: UUUGACAACUGAUCGUUCUUUCUUGUACAUAGUUCUUUCUCGAUCAGUUGUCUUU | 11 nM
Ic_S4_P4E.1_K4.1_C4.1_H4.1_A4.1_[T5A]_[A6C]_[T7G]_F4.1_T4.1 (ssRNA) RNA: UUUGACAACUGAUCGUUCUUUCUUGUAACGUAUUCUUUCUCGAUCAGUUGUCUUU | 14.5 nM
Ic_S4_P4E.1_K4.1_C4.1_H4.1_A4.1_[T5A]_[A6C]_F4.1_[T8C]_[A9T]_T4.1 (ssRNA) RNA: UUUGACAACUGAUCGUUCUUUCUUGUAACUCUUUCUUUCUCGAUCAGUUGUCUUU | 72 nM
Ic_S4_P4E.1_K4.1_C4.1_H4.1_A4.1_[T5C]_F4.1_[T8G]_[A9C]_T4.1 (ssRNA) RNA: UUUGACAACUGAUCGUUCUUUCUUGUACAUGCUUCUUUCUCGAUCAGUUGUCUUU | 14.3 nM
Ic_S4_P4E.1_K4.1_C4.1_H4.1_A4.1_[T5A]_[A6C]_[T7C]_F4.1_[T8C]_[A9T]_T4.1 (ssRNA) RNA: UUUGACAACUGAUCGUUCUUUCUUGUAACCCUUUCUUUCUCGAUCAGUUGUCUUU | 225 nM
Ic_S4_P4E.1_K4.1_C4.1_H4.1_A4.1_[T5A]_[A6C]_[T7C]_F4.1_[T8G]_[A9C]_T4.1 (ssRNA) RNA: UUUGACAACUGAUCGUUCUUUCUUGUAACCGCUUCUUUCUCGAUCAGUUGUCUUU | 927 nM
Ic_S4_P4E.1_K4.1_C4.1_H4.1_A4.1_[T5A]_[A6C]_[T7C]_F4.1_[A9G]_T4.1 (ssRNA) RNA: UUUGACAACUGAUCGUUCUUUCUUGUAACCUGUUCUUUCUCGAUCAGUUGUCUUU | 44.1 nM
Ic_S4_P4E.1_K4.1_C4.1_H4.1_A4.1_[T5A]_[A6C]_[T7A]_F4.1_[T8C]_[A9C]_T4.1 (ssRNA) RNA: UUUGACAACUGAUCGUUCUUUCUUGUAACACCUUCUUUCUCGAUCAGUUGUCUUU | 215 nM
Ic_S4_P4E.1_K4.1_C4.1_H4.1_A4.1_[T5A]_[A6C]_F4.1_[A9G]_T4.1 (ssRNA) RNA: UUUGACAACUGAUCGUUCUUUCUUGUAACUUGUUCUUUCUCGAUCAGUUGUCUUU | 84.8 nM
Ic_S4_P4E.1_K4.1_C4.1_H4.1_A4.1_[T5C]_F4.1_[T8A]_T4.1 (ssRNA) RNA: UUUGACAACUGAUCGUUCUUUCUUGUACAUAAUUCUUUCUCGAUCAGUUGUCUUU | 2.32 nM
Ic_S4_P4E.1_K4.1_C4.1_H4.1_A4.1_[T5A]_[A6C]_[T7G]_F4.1_[A9T]_T4.1 (ssRNA) RNA: UUUGACAACUGAUCGUUCUUUCUUGUAACGUUUUCUUUCUCGAUCAGUUGUCUUU | 84.3 nM
Ic_S4_P4E.1_K4.1_C4.1_H4.1_A4.1_[T5A]_[A6C]_[T7C]_F4.1_[A9T]_T4.1 (ssRNA) RNA: UUUGACAACUGAUCGUUCUUUCUUGUAACCUUUUCUUUCUCGAUCAGUUGUCUUU | 31.1 nM
UCUCUUUGUCUAUUAUCUCUU (ssRNA) [Ia_S1_P4E.1_K4.1_C4.1_H4.1_[A4C]_A4.1_F4.1_T4.1] | 12.7 nM
UCUCUUUGUAUGUCAUCUCUU (ssRNA) [Ic_S1_P4E.1_K4.1_C4.1_H4.1_A4.1_[A6G]_F4.1_[T8C]_T4.1] | 384 nM
UCUCUUUGUAUGUAAUCUCUU (ssRNA) [Ib_S1_P4E.1_K4.1_C4.1_H4.1_A4.1_[A6G]_F4.1_[T8A]_T4.1] | 94.6 nM
UCUCUUUGUAUUUGAUCUCUU (ssRNA) [Ib_S1_P4E.1_K4.1_C4.1_H4.1_A4.1_[A6T]_F4.1_[T8G]_T4.1] | 458 nM
